This is an account of results in publication PMC3328447, “DNA Aptamers against the Lup an 1 Food Allergen”.

Series [1] has as its system beta-conglutin (Lup an 1) (lupin). As to the kind of experiment: SPR. The note with it: 10 mM phosphate, 138 mM NaCl, 2.7 mM KCl, 1.5 mM MgCl2, pH 7.4; ELONA at 21 C, SPR temperature not stated (Biacore 3000, CM5). (Surface plasmon resonance follows binding to a sensor surface in real time, without labels.)
Series [2] has the same test system. The series can be described thus: competition. Particulars: 10 mM phosphate, 138 mM NaCl, 2.7 mM KCl, 1.5 mM MgCl2, pH 7.4; ELONA at 21 C, SPR temperature not stated (Biacore 3000, CM5).
A further series addresses T1, gamma-conglutin (lupin, UniProt Q9FSH9;Q9FSH9 34-300;301-452).
T1 sequence 1: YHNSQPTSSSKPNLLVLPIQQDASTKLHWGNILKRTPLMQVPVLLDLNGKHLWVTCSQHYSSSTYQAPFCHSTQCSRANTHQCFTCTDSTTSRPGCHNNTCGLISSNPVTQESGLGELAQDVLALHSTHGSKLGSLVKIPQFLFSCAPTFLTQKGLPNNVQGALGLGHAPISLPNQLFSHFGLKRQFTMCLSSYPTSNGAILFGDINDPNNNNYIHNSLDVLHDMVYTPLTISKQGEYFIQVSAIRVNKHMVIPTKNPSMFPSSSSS
T1 sequence 2: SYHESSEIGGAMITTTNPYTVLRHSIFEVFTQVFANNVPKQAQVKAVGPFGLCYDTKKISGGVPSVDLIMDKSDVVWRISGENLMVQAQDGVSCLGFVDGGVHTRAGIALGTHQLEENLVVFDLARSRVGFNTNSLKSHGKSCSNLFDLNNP
As to the kind of experiment: SPR; 10 uM DNA, 1.5 mM Mg2+; signal negligible; 10 mM phosphate, 138 mM NaCl, 2.7 mM KCl, 1.5 mM MgCl2, pH 7.4; ELONA at 21 C, SPR temperature not stated (Biacore 3000, CM5). The note with it: protein: native, tags: none, label: none, single strand, predicted stem-loops and G-quadruplex (m-fold, QGRS).

In series [1], “AGCTGACACAGCAGGTTGGTGGGGGTGGCTCACATCATGGTAGAATGACTGAACAGCGTTGATTAAAAGGCACGAGTCGAGCAATCTCGAAAT [Sequence 2 (S2)]” returned a Kd of 515 nM.
As for “AGCTGACACAGCAGGTTGGTGGGGGTGGCTTCCAGTTGGGTTGACAATACGTAGGGACACGAAGTCCAACCACGAGTCGAGCAATCTCGAAAT [Sequence 40 (S40)]”, the IC50 in series [2] is 393 nM. In addition, in series [1], the Kd was 360 nM.

B1: Sequence 2 (S2) (structured_DNA)
DNA: AGCTGACACAGCAGGTTGGTGGGGGTGGCTCACATCATGGTAGAATGACTGAACAGCGTTGATTAAAAGGCACGAGTCGAGCAATCTCGAAAT
Turning to B1, the binding result in the series with gamma-conglutin is on record as “no binding”.

B2: Sequence 40 (S40) (structured_DNA)
DNA: AGCTGACACAGCAGGTTGGTGGGGGTGGCTTCCAGTTGGGTTGACAATACGTAGGGACACGAAGTCCAACCACGAGTCGAGCAATCTCGAAAT
For the molecule B2, the binding result with gamma-conglutin (biotinylated probe S4 hybridised to 3' end for ELONA detection) was “no binding”.

In general, Kd refers to the equilibrium constant for the complex coming apart. High values mean lower affinity, low ones higher affinity. The IC50 is the midpoint of a concentration-inhibition curve. Read a high IC50 as a need for much substance.
